Reference: patent publication US20060234308

How the values were obtained:
[1] = test system: 13-mer peptides of the scan through the myelin basic protein (MBP) from bos taurus
[2] = test system: T1, Leu-Arg-Arg-Ala-Ser-Leu-Gly-thioamide
T1 sequence: LRRASLG

[3] = test system: T2, Cys-BAl-Lys-Arg-Arg-Glu-Ile-Leu-Ser-Arg-Arg-Pro-Ser-Tyr-Arg-NH2
T2 sequence: CXKRREILSRRPSYR

[4] = test system: T3, Cys-BAl-Ala-Lys-Arg-Arg-Arg-Leu-Ser-Ser-Leu-Arg-Ala-NH2
T3 sequence: CXAKRRRLSSLRA

[5] = test system: T4, Dpr(Aoa)-Leu-Arg-Arg-Ala-Ser-Leu-Gly-NH2
T4 sequence: LRRASLG

[6] = test system: T5, Cys-BAl-Gly-Arg-Thr-Gly-Arg-Arg-Asn-Ser-Ile-NH2
T5 sequence: CXGRTGRRNSI

[7] = test system: T6, Cys-βAla-Leu-Arg-Arg-Ala-Ser-Leu-Gly-NH2
T6 sequence: CXLRRASLG

[8] = test system: T7, Arg-Arg-Ile-Ser-Lys-Asp-Asn-Pro-Asp-Tyr-Gln-Gln-Asp-BAl-Cys-NH2
T7 sequence: RRISKDNPDYQQDXC

[9] = test system: T8, Cys-BAl-Gln-Lys-Arg-Pro-Ser-Gln-Arg-Ser-Lys-Tyr-Leu-NH2
T8 sequence: CXQKRPSQRSKYL

[10] = test system: T9, Cys-BAl-Lys-Lys-Arg-Phe-Ser-Phe-Lys-Lys-Ser-Phe-Lys-Leu-NH2
T9 sequence: CXKKRFSFKKSFKL

[11] = test system: T10, Cys-BAl-Pro-Leu-Ser-Arg-Thr-Leu-Ser-Val-Ala-Ala-Lys-Lys-NH2
T10 sequence: CXPLSRTLSVAAKK

[12] = test system: T11, Cys-BAl-Pro-Lys-Asp-Pro-Ser-Gln-Arg-Arg-Arg-NH2
T11 sequence: CXPKDPSQRRR

[13] = test system: other peptides not described as substrates for protein kinase C

Protein kinase A
phosphorylation on MBP peptide scan array (32P, PhosphorImager; higher signal in all three subarrays) [1]: most of the peptides on the modified glass surface are recognised and phosphorylated by protein kinase A which was also found in the experiment carried out in solution | phosphorylation of 11760 spots on glass (32P, PhosphorImager; FIG. 6) [2]: the linking of the immobilised kinase substrate is tolerated by the protein kinase A | phosphorylation on peptide array (32P, PhosphorImager; higher signal in all three subarrays) [3]: with one exception, all the peptides on the modified glass surface are recognised and phosphorylated by protein kinase A which carries two arginine residues in position -2 and -3 (N-terminal) to the serine | phosphorylation on peptide array (32P, PhosphorImager; higher signal in all three subarrays) [4]: with one exception, all the peptides on the modified glass surface are recognised and phosphorylated by protein kinase A which carries two arginine residues in position -2 and -3 (N-terminal) to the serine | phosphorylation of 960 spots on glass (32P, PhosphorImager; FIG. 7) [5]: the linking of the immobilised kinase substrate is tolerated by the protein kinase A | phosphorylation on peptide array (32P, PhosphorImager; higher signal in all three subarrays) [6]: with one exception, all the peptides on the modified glass surface are recognised and phosphorylated by protein kinase A which carries two arginine residues in position -2 and -3 (N-terminal) to the serine | phosphorylation on peptide array (32P, PhosphorImager; higher signal in all three subarrays) [7]: with one exception, all the peptides on the modified glass surface are recognised and phosphorylated by protein kinase A which carries two arginine residues in position -2 and -3 (N-terminal) to the serine | time course of 32P incorporation on modified glass (FIG. 3) [7]: a clear time dependence can be identified for the kinase-mediated incorporation of radioactivity into the substrate amino acid sequence | phosphorylation on peptide array (32P, PhosphorImager) [8]: The peptide 83 is probably not phosphorylated because of the excessive N-terminal localisation of the substrate motif

Protein kinase C
phosphorylation on peptide array (32P, PhosphorImager; higher signal in all three subarrays) [9]: the peptides known as protein kinase C substrates (substrate peptides Nos. 3, 23, 27, 41, 43) ... are recognised and phosphorylated by this kinase on the modified glass surface | phosphorylation on peptide array (32P, PhosphorImager; higher signal in all three subarrays) [10]: the peptides known as protein kinase C substrates (substrate peptides Nos. 3, 23, 27, 41, 43) ... are recognised and phosphorylated by this kinase on the modified glass surface | phosphorylation on peptide array (32P, PhosphorImager; higher signal in all three subarrays) [11]: the peptides known as protein kinase C substrates (substrate peptides Nos. 3, 23, 27, 41, 43) ... are recognised and phosphorylated by this kinase on the modified glass surface | phosphorylation on peptide array (32P, PhosphorImager; higher signal in all three subarrays) [12]: the peptides known as protein kinase C substrates (substrate peptides Nos. 3, 23, 27, 41, 43) ... are recognised and phosphorylated by this kinase on the modified glass surface | phosphorylation on peptide array (32P, PhosphorImager; higher signal in all three subarrays) [4]: the peptides known as protein kinase C substrates (substrate peptides Nos. 3, 23, 27, 41, 43) ... are recognised and phosphorylated by this kinase on the modified glass surface | phosphorylation on peptide array (32P, PhosphorImager; higher signal in all three subarrays) [13]: other peptides not described as substrates for protein kinase C are recognised and phosphorylated by this kinase on the modified glass surface
